Our source for the IC50, pseudovirus neutralization and IC80, pseudovirus neutralization values is patent US20240109955A1.

This test deals with SARS-CoV-2 spike protein, original Wuhan strain (WT) (SARS-CoV-2) (UniProt P0DTC2). Description: cell-based or functional assay.

Chain of A19-46 mAb (antibody) (VH): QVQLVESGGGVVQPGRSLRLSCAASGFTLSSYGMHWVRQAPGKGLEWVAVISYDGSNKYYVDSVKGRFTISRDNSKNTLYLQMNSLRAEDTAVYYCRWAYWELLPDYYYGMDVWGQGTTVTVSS
Chain of A19-46 mAb (antibody) (VL): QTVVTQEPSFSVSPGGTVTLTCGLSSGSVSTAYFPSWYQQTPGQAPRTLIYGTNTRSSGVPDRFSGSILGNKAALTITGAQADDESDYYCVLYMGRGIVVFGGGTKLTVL
Chain of A19-46.1 (antibody) (VH): as the sequence (VH) above
Chain of A19-46.1 (antibody) (VL): as the sequence (VL) above

A19-46 mAb (antibody) returned an IC50, pseudovirus neutralization of 0.263 nM and an IC80, pseudovirus neutralization of 0.778 nM.

Regarding A19-46.1 (antibody), the IC50, pseudovirus neutralization is 0.263 nM and the IC80, pseudovirus neutralization was 0.778 nM.

A19-61 mAb (antibody) registered an IC50, pseudovirus neutralization of 0.172 nM and an IC80, pseudovirus neutralization of 0.408 nM.

In turn, B1-182 mAb (antibody) displayed an IC50, pseudovirus neutralization of 0.0264 nM and an IC80, pseudovirus neutralization of 0.0692 nM.

Take B1-182.1 (antibody): the IC50, pseudovirus neutralization was 0.0264 nM and the IC80, pseudovirus neutralization was determined as 0.0692 nM.
